Measured values reported in patent publication US20120022128.

How the values were obtained:
[1] = system: T1, recombinant PKIB
T1 sequence: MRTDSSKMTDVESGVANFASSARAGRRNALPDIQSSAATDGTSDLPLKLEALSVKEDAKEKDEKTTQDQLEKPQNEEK

[2] = system: recombinant Akt

Substance: recombinant PKA-C kinase
- phosphorylation of Akt-Ser473 by PKA-C, in vitro kinase assay with recombinant proteins [1]: the phosphorylation level of Akt (Ser473) was clearly enhanced by addition of PKIB
- phosphorylation of Akt-Ser473, in vitro kinase assay with recombinant proteins (western blot with anti-phospho-Akt (Ser473) antibody) [2]: phosphorylated Ser473-specific antibody detected phosphorylated Akt when PKA-C kinase reacted with recombinant Akt
